Here are results for six molecules from US20240270846A1 (published 2024).

Assay [1] addresses T1, CD3 epsilon homodimer protein (UniProt P07766 23-126).
T1 construct: also called CD3 (CD3 epsilon)
The assay can be described thus: SPR Biacore T200, CD3 epsilon homodimer immobilised on CM4, one-arm antibody as analyte, single-cycle kinetics; reference unaltered GLS3000 antibody. (In SPR one partner is held on a chip, and binding of the other changes the refractive index at the surface.)
Procedure: An appropriate amount of CD3 epsilon homodimer protein was immobilized onto Sensor chip CM4 (GE Healthcare Japan Corp.) by the amine coupling method. Then, the antibody having an appropriate concentration was injected thereto as an analyte and allowed to interact with the CD3 epsilon homodimer protein on the sensor chip. Then, the sensor chip was regenerated by the injection of 10 mmol/L glycine-HCl (pH 1.5). The assay was conducted at 25 degrees C., and HBS-EP+(GE Healthcare Japan Corp.) was used as a running buffer. […] Each parameter was calculated using Biacore T200 Evaluation Software (GE Healthcare Japan Corp.).
Specifically, when the amount of the GLS3000-containing antibody bound was defined as X and the amount of the L chain one-amino acid altered form bound was defined as Y, a value of Z (ratio of amounts bound)=Y/X was used.

Assay [2] deals with T2, cynomolgus monkey CD137 (cynomolgus monkey, UniProt Q07011 24-186 (human entry), limits assumed).
T2 construct: Soluble analyte in the Biacore assay; also called cyno CD137
T2 chain: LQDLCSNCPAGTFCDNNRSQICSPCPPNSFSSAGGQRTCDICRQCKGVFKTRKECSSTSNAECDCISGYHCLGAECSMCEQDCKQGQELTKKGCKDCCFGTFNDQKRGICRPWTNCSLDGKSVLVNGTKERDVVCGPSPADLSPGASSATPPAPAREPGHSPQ
The assay can be described thus: SPR Biacore T200, IgG captured on protein A, antigen as analyte, 25 C.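 Further: antigens flowed over a CM3 chip for 120 s association, KD derived from ka and kd, running buffer (ACES, NaCl, Tween20, pH 7.4) served as blank.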
Procedure: (§1) Sensor chip CM3 (GE Healthcare) was immobilized with an appropriate amount of sure protein A (GE Healthcare) by amine coupling. The selected antibodies were captured by the chip to allow interaction to human CD3ed, human CD137 and cyno CD137 as an antigen. The running buffer used was 20 mmol/l ACES, 150 mmol/l NaCl, 0.05% (w/v) Tween20, pH 7.4. All measurements were carried out at 25 degrees C. The antigens were diluted using the running buffer.
(§2) Diluted antigen solutions and the running buffer which is the blank were loaded at a flow rate of 30 micro L/min for 120 seconds to allow each of the antigens to interact with the antibody captured on the sensor chip. […] Next, to regenerate the sensor chip, 10 mmol/L glycine-HCl, pH 1.5 was loaded at a flow rate of 30 micro L/min for 30 seconds and 50 mmol/L NaOH was loaded at a flow rate 30 micro L/min for 30 seconds.
(§3) Kinetic parameters such as the association rate constant ka (1/Ms) and the dissociation rate constant kd (1/s) were calculated based on the sensorgrams obtained by the measurements. The dissociation constant KD(M) was calculated from these constants. Each parameter was calculated using the Biacore T200 Evaluation Software (GE Healthcare).

Assay [3] concerns the target T3, human CD3ed (human, UniProt P07766 23-126; P04234 22-105, limits assumed).
T3 construct: The construct injected as 'human CD3ed' in the Biacore assay is not defined; also called human CD3 epsilon/delta heterodimer
The description is as above.
Procedure: as §1, §2, §3
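Wherever dissociation constant KD(M) ratio of L chain altered form to GLS3000 is given: CD3 epsilon homodimer attached to the CM4 chip via amine coupling, measured at 25 °C with HBS-EP+ as running buffer.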

T3 sequence (P07766 23-126 limits assumed, chain 1 of 2): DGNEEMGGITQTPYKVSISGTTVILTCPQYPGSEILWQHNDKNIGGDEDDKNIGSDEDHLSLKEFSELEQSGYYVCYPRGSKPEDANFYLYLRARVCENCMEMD
T3 sequence (P04234 22-105 limits assumed, chain 2 of 2): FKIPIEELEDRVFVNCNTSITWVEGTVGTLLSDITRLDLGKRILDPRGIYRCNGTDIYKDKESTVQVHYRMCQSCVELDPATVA
T1 sequence (P07766 23-126): as the sequence (P07766 23-126 limits assumed, chain 1 of 2) above

B1: GLS3000 V94P one-amino acid altered one-arm antibody (CE115HA000-pE22Hh / Kn010G3 / GLS3000 V94P-kappa) (antibody, human IgG1, kappa, L234A L235A, N297A, name in Kabat numbering)
heavy: QVQLVESGGGVVQPGRSLRLSCAASGFTFSNAWMHWVRQAPGKGLEWVAQIKAKSNNYATYYAESVKGRFTISRDDSKNSLYLQMNSLKTEDTAVYYCRYVHYGAYYGVDAWGQGTTVTVSSASTKGPSVFPLAPSSKSTSGGTAALGCLVKDYFPEPVTVSWNSGALTSGVHTFPAVLQSSGLYSLSSVVTVPSSSLGTQTYICNVNHKPSNTKVDKKVEPKSCDKTHTCPPCPAPEAAGGPSVFLFPPKPKDTLMISRTPEVTCVVVDVSHEDPEVKFNWYVDGVEVHNAKTKPREEQYASTYRVVSVLTVLHQDWLNGKEYKCKVSNKALPAPIEKTISKAKGQPREPQVYTLPPSRCELTKNQVSLSCAVKGFYPSDIAVEWESNGQPENNYKTTPPVLDSDGSFFLVSKLTVDKSRWQQGNVFSCSVMHEALHNHYTQKSLSLSPDYKDDDDK
chain: EPKSSDKTHTCPPCPAPELLGGPSVFLFPPKPKDTLMISRTPEVTCVVVDVSHEDPEVKFNWYVDGVEVHNAKTKPREEQYNSTYRVVSVLTVLHQDWLNGKEYKCKVSNKALPAPIEKTISKAKGQPREPQVCTLPPSRDELTKNQVSLWCLVKGFYPSDIAVEWESNGQPENNYKTTPPVLDSDGSFFLYSKLTVDKSRWQQGNVFSCSVMHEALHNRYTQKSLSLSP
light: DIVMTQSPLSLPVTPGEPASISCRSSQSLVHSNRNTYLHWYQQKPGQAPRLLIYKVSNRFSGVPDRFSGSGSGTDFTLKISRVEAEDVGVYYCGQGTQPPYTFGQGTKLEIKRTVAAPSVFIFPPSDEQLKSGTASVVCLLNNFYPREAKVQWKVDNALQSGNSQESVTEQDSKDSTYSLSSTLTLSKADYEKHKVYACEVTHQGLSSPVTKSFNRGEC
notes: One-arm antibody; substitution position in Kabat numbering; also called L chain altered form, Kabat 94 V to P
Turning to B1, the “dissociation constant KD(M) ratio of L chain altered form to GLS3000” value (shortened to “dissociation constant KD(M) ratio”) in assay [1] amounted to 1.1 ratio.

B2: GLS3000 G89T one-amino acid altered one-arm antibody (CE115HA000-pE22Hh / Kn010G3 / GLS3000 G89T-kappa) (antibody, human IgG1, kappa, L234A L235A, N297A, name in Kabat numbering)
heavy: QVQLVESGGGVVQPGRSLRLSCAASGFTFSNAWMHWVRQAPGKGLEWVAQIKAKSNNYATYYAESVKGRFTISRDDSKNSLYLQMNSLKTEDTAVYYCRYVHYGAYYGVDAWGQGTTVTVSSASTKGPSVFPLAPSSKSTSGGTAALGCLVKDYFPEPVTVSWNSGALTSGVHTFPAVLQSSGLYSLSSVVTVPSSSLGTQTYICNVNHKPSNTKVDKKVEPKSCDKTHTCPPCPAPEAAGGPSVFLFPPKPKDTLMISRTPEVTCVVVDVSHEDPEVKFNWYVDGVEVHNAKTKPREEQYASTYRVVSVLTVLHQDWLNGKEYKCKVSNKALPAPIEKTISKAKGQPREPQVYTLPPSRCELTKNQVSLSCAVKGFYPSDIAVEWESNGQPENNYKTTPPVLDSDGSFFLVSKLTVDKSRWQQGNVFSCSVMHEALHNHYTQKSLSLSPDYKDDDDK
chain: EPKSSDKTHTCPPCPAPELLGGPSVFLFPPKPKDTLMISRTPEVTCVVVDVSHEDPEVKFNWYVDGVEVHNAKTKPREEQYNSTYRVVSVLTVLHQDWLNGKEYKCKVSNKALPAPIEKTISKAKGQPREPQVCTLPPSRDELTKNQVSLWCLVKGFYPSDIAVEWESNGQPENNYKTTPPVLDSDGSFFLYSKLTVDKSRWQQGNVFSCSVMHEALHNRYTQKSLSLSP
light: DIVMTQSPLSLPVTPGEPASISCRSSQSLVHSNRNTYLHWYQQKPGQAPRLLIYKVSNRFSGVPDRFSGSGSGTDFTLKISRVEAEDVGVYYCTQGTQVPYTFGQGTKLEIKRTVAAPSVFIFPPSDEQLKSGTASVVCLLNNFYPREAKVQWKVDNALQSGNSQESVTEQDSKDSTYSLSSTLTLSKADYEKHKVYACEVTHQGLSSPVTKSFNRGEC
notes: One-arm antibody; substitution position in Kabat numbering; also called L chain altered form, Kabat 89 G to T
Consider B2, for which the “dissociation constant KD(M) ratio” value in assay [1] was found to be 1.1 ratio.

B3: GLS3000 G89P one-amino acid altered one-arm antibody (CE115HA000-pE22Hh / Kn010G3 / GLS3000 G89P-kappa) (antibody, human IgG1, kappa, L234A L235A, N297A, name in Kabat numbering)
heavy: QVQLVESGGGVVQPGRSLRLSCAASGFTFSNAWMHWVRQAPGKGLEWVAQIKAKSNNYATYYAESVKGRFTISRDDSKNSLYLQMNSLKTEDTAVYYCRYVHYGAYYGVDAWGQGTTVTVSSASTKGPSVFPLAPSSKSTSGGTAALGCLVKDYFPEPVTVSWNSGALTSGVHTFPAVLQSSGLYSLSSVVTVPSSSLGTQTYICNVNHKPSNTKVDKKVEPKSCDKTHTCPPCPAPEAAGGPSVFLFPPKPKDTLMISRTPEVTCVVVDVSHEDPEVKFNWYVDGVEVHNAKTKPREEQYASTYRVVSVLTVLHQDWLNGKEYKCKVSNKALPAPIEKTISKAKGQPREPQVYTLPPSRCELTKNQVSLSCAVKGFYPSDIAVEWESNGQPENNYKTTPPVLDSDGSFFLVSKLTVDKSRWQQGNVFSCSVMHEALHNHYTQKSLSLSPDYKDDDDK
chain: EPKSSDKTHTCPPCPAPELLGGPSVFLFPPKPKDTLMISRTPEVTCVVVDVSHEDPEVKFNWYVDGVEVHNAKTKPREEQYNSTYRVVSVLTVLHQDWLNGKEYKCKVSNKALPAPIEKTISKAKGQPREPQVCTLPPSRDELTKNQVSLWCLVKGFYPSDIAVEWESNGQPENNYKTTPPVLDSDGSFFLYSKLTVDKSRWQQGNVFSCSVMHEALHNRYTQKSLSLSP
light: DIVMTQSPLSLPVTPGEPASISCRSSQSLVHSNRNTYLHWYQQKPGQAPRLLIYKVSNRFSGVPDRFSGSGSGTDFTLKISRVEAEDVGVYYCPQGTQVPYTFGQGTKLEIKRTVAAPSVFIFPPSDEQLKSGTASVVCLLNNFYPREAKVQWKVDNALQSGNSQESVTEQDSKDSTYSLSSTLTLSKADYEKHKVYACEVTHQGLSSPVTKSFNRGEC
notes: One-arm antibody; substitution position in Kabat numbering; also called L chain altered form, Kabat 89 G to P
Turning to B3, in assay [1], the “dissociation constant KD(M) ratio” value turned out to be 1.8 ratio.

B4: GLS3000 G89V one-amino acid altered one-arm antibody (CE115HA000-pE22Hh / Kn010G3 / GLS3000 G89V-kappa) (antibody, human IgG1, kappa, L234A L235A, N297A, name in Kabat numbering)
heavy: QVQLVESGGGVVQPGRSLRLSCAASGFTFSNAWMHWVRQAPGKGLEWVAQIKAKSNNYATYYAESVKGRFTISRDDSKNSLYLQMNSLKTEDTAVYYCRYVHYGAYYGVDAWGQGTTVTVSSASTKGPSVFPLAPSSKSTSGGTAALGCLVKDYFPEPVTVSWNSGALTSGVHTFPAVLQSSGLYSLSSVVTVPSSSLGTQTYICNVNHKPSNTKVDKKVEPKSCDKTHTCPPCPAPEAAGGPSVFLFPPKPKDTLMISRTPEVTCVVVDVSHEDPEVKFNWYVDGVEVHNAKTKPREEQYASTYRVVSVLTVLHQDWLNGKEYKCKVSNKALPAPIEKTISKAKGQPREPQVYTLPPSRCELTKNQVSLSCAVKGFYPSDIAVEWESNGQPENNYKTTPPVLDSDGSFFLVSKLTVDKSRWQQGNVFSCSVMHEALHNHYTQKSLSLSPDYKDDDDK
chain: EPKSSDKTHTCPPCPAPELLGGPSVFLFPPKPKDTLMISRTPEVTCVVVDVSHEDPEVKFNWYVDGVEVHNAKTKPREEQYNSTYRVVSVLTVLHQDWLNGKEYKCKVSNKALPAPIEKTISKAKGQPREPQVCTLPPSRDELTKNQVSLWCLVKGFYPSDIAVEWESNGQPENNYKTTPPVLDSDGSFFLYSKLTVDKSRWQQGNVFSCSVMHEALHNRYTQKSLSLSP
light: DIVMTQSPLSLPVTPGEPASISCRSSQSLVHSNRNTYLHWYQQKPGQAPRLLIYKVSNRFSGVPDRFSGSGSGTDFTLKISRVEAEDVGVYYCVQGTQVPYTFGQGTKLEIKRTVAAPSVFIFPPSDEQLKSGTASVVCLLNNFYPREAKVQWKVDNALQSGNSQESVTEQDSKDSTYSLSSTLTLSKADYEKHKVYACEVTHQGLSSPVTKSFNRGEC
notes: One-arm antibody; substitution position in Kabat numbering; also called L chain altered form, Kabat 89 G to V
Turning to B4, the “dissociation constant KD(M) ratio” value in assay [1] was determined as 1.4 ratio.

B5: GLS3000 G89Q one-amino acid altered one-arm antibody (CE115HA000-pE22Hh / Kn010G3 / GLS3000 G89Q-kappa) (antibody, human IgG1, kappa, L234A L235A, N297A, name in Kabat numbering)
heavy: QVQLVESGGGVVQPGRSLRLSCAASGFTFSNAWMHWVRQAPGKGLEWVAQIKAKSNNYATYYAESVKGRFTISRDDSKNSLYLQMNSLKTEDTAVYYCRYVHYGAYYGVDAWGQGTTVTVSSASTKGPSVFPLAPSSKSTSGGTAALGCLVKDYFPEPVTVSWNSGALTSGVHTFPAVLQSSGLYSLSSVVTVPSSSLGTQTYICNVNHKPSNTKVDKKVEPKSCDKTHTCPPCPAPEAAGGPSVFLFPPKPKDTLMISRTPEVTCVVVDVSHEDPEVKFNWYVDGVEVHNAKTKPREEQYASTYRVVSVLTVLHQDWLNGKEYKCKVSNKALPAPIEKTISKAKGQPREPQVYTLPPSRCELTKNQVSLSCAVKGFYPSDIAVEWESNGQPENNYKTTPPVLDSDGSFFLVSKLTVDKSRWQQGNVFSCSVMHEALHNHYTQKSLSLSPDYKDDDDK
chain: EPKSSDKTHTCPPCPAPELLGGPSVFLFPPKPKDTLMISRTPEVTCVVVDVSHEDPEVKFNWYVDGVEVHNAKTKPREEQYNSTYRVVSVLTVLHQDWLNGKEYKCKVSNKALPAPIEKTISKAKGQPREPQVCTLPPSRDELTKNQVSLWCLVKGFYPSDIAVEWESNGQPENNYKTTPPVLDSDGSFFLYSKLTVDKSRWQQGNVFSCSVMHEALHNRYTQKSLSLSP
light: DIVMTQSPLSLPVTPGEPASISCRSSQSLVHSNRNTYLHWYQQKPGQAPRLLIYKVSNRFSGVPDRFSGSGSGTDFTLKISRVEAEDVGVYYCQQGTQVPYTFGQGTKLEIKRTVAAPSVFIFPPSDEQLKSGTASVVCLLNNFYPREAKVQWKVDNALQSGNSQESVTEQDSKDSTYSLSSTLTLSKADYEKHKVYACEVTHQGLSSPVTKSFNRGEC
notes: One-arm antibody; substitution position in Kabat numbering; also called L chain altered form, Kabat 89 G to Q
For the molecule B5, in assay [1], the “dissociation constant KD(M) ratio” value was 2.11 ratio.

B6: dBBDu_189 / dBBDu_L112 (antibody, human IgG1, V domains shown)
VH: QVQLVESGGGLVQPGRSLRLSCAASGFTFSNAWMHWVRQAPGKGLEWIAQIKDRSNQYATYYAPSVKGRFTISRDDSKNSIYLQMNSLKTEDTAVYYCHYVHYAQASSLLPSFGVDAWGQGTTVTVSS
VL: DIVMTQSPLSLPVTPGEPASISCTSDQELVHMNRHTYLHWYQQKPGQAPRLLIYKVYNRFPGVPDRFSGSGSGTDFTLKISRVEAEDVGVYYCAQGTSVPFTFGQGTKLEIK
notes: Tested as IgG (human IgG1 constant region, kappa light chain); also called dBBDu189/L112
In general, Kd refers to the equilibrium constant for the complex coming apart. What is called koff is a measure of how fast the partners let go of each other. As a reminder, the kon is a measure of how fast the partners come together. In assay [2], B6 yielded a Kd of 5.76 µM, a koff of 0.0286 s⁻¹ and a kon of 4980 M⁻¹ s⁻¹. Also, in assay [3], binding was characterised by a dissociation constant (Kd) of 0.331 µM, the off-rate (koff) came to 0.01 s⁻¹ and the kon stood at 30300 M⁻¹ s⁻¹.
